Laboratory results taken from publication PMC7316235, “Computational and structure-guided design of phosphoinositide substrate specificity into the tyrosine specific LMW-PTP enzyme” (PLoS ONE, 2020).
Where two headings read alike, the source gives them in different places. Blank lines part the entries; values can stand above or below the molecule they belong to.

How the values were obtained:
LMW-PTP (LMW-PTPB) [1] = molecular target: T1, LMW-PTP (LMW-PTPB) (Homo sapiens, UniProt P24666, L14R/I17K, form not given); experiment: pNPP assay, Michaelis-Menten fit; format: biochemical; settings: pH 5.5, 37 °C; read-out: RK / Km
T1 construct: gene ACP1; N-terminal 6xHis tag (pNIC28a-Bsa4, TEV-cleavable; cleavage described only for crystallisation); E. coli BL21-DE3
T1 sequence (P24666 1-158 isoform P24666-2 L14R/I17K): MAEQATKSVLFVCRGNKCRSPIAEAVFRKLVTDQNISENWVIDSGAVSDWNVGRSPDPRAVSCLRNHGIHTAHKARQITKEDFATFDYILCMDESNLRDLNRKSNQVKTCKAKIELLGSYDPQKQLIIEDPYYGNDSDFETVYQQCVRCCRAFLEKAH
From the text: (§1) pNPP assay, Michaelis-Menten fit on LMW-PTP (LMW-PTPB)

LMW-PTP (LMW-PTPB) [2] = molecular target: T1, LMW-PTP (LMW-PTPB); experiment: malachite green phosphate release, Michaelis-Menten fit; format: biochemical; settings: pH 5.5, 37 °C, diC8 lipid
From the text: (§2) malachite green phosphate release, Michaelis-Menten fit on LMW-PTP (LMW-PTPB)

LMW-PTP (LMW-PTPB) [3] = molecular target: T2, LMW-PTP (LMW-PTPB) (Homo sapiens, UniProt P24666, L14R/I17T, form not given); experiment: as above; format: biochemical; settings: pH 5.5, 37 °C, diC8 lipid
T2 construct: gene ACP1; N-terminal 6xHis tag (pNIC28a-Bsa4, TEV-cleavable; cleavage described only for crystallisation); E. coli BL21-DE3
T2 sequence (P24666 1-158 isoform P24666-2 L14R/I17T): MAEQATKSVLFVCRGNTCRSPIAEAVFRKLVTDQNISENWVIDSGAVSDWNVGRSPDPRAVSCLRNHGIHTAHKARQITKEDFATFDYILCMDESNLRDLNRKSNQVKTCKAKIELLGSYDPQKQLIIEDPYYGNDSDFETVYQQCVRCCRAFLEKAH
From the text: as §2

[4] = substrate: CCCCCCCC(=O)OC[C@H](COP(=O)(O)O[C@@H]1[C@H](O)[C@H](OP(=O)(O)O)[C@@H](O)[C@H](OP(=O)(O)O)[C@H]1O)OC(=O)CCCCCCC; experiment: as above; format: biochemical, Homo sapiens; settings: pH 7.5, 37 °C, diC8 lipid
From the text: malachite green phosphate release, Michaelis-Menten fit on MTMR2

[5] = substrate: N[C@@H](Cc1ccc(OP(=O)(O)O)cc1)C(=O)O; experiment: as above; format: biochemical, Homo sapiens; settings: pH 5.5, 37 °C
From the text: as §2

[6] = substrate: O=[N+]([O-])c1ccc(OP(=O)(O)O)cc1; experiment: pNPP assay, Michaelis-Menten fit; format: biochemical, Homo sapiens; settings: pH 5.5, 37 °C
From the text: as §1

Molecule: CCCCCCCC(=O)OC[C@H](COP(=O)(O)O[C@@H]1[C@H](O)[C@H](OP(=O)(O)O)[C@@H](O)[C@H](O)[C@H]1O)OC(=O)CCCCCCC [PI(3)P]
Km (LMW-PTP (LMW-PTPB) [2]; read-out: RK / Km): 22.9 ± 5 µM

B1: MTMR2 (Homo sapiens) (protein)
chain: MEKSSSCESLGSQPAAARPPSVDSLSSASTSHSENSVHTKSASVVSSDSISTSADNFSPDLRVLRESNKLAEMEEPPLLPGENIKDMAKDVTYICPFTGAVRGTLTVTNYRLYFKSMERDPPFVLDASLGVINRVEKIGGASSRGENSYGLETVCKDIRNLRFAHKPEGRTRRSIFENLMKYAFPVSNNLPLFAFEYKEVFPENGWKLYDPLLEYRRQGIPNESWRITKINERYELCDTYPALLVVPANIPDEELKRVASFRSRGRIPVLSWIHPESQATITRCSQPMVGVSGKRSKEDEKYLQAIMDSNAQSHKIFIFDARPSVNAVANKAKGGGYESEDAYQNAELVFLDIHNIHVMRESLRKLKEIVYPNIEETHWLSNLESTHWLEHIKLILAGALRIADKVESGKTSVVVHCSDGWDRTAQLTSLAMLMLDGYYRTIRGFEVLVEKEWLSFGHRFQLRVGHGDKNHADADRSPVFLQFIDCVWQMTRQFPTAFEFNEYFLITILDHLYSCLFGTFLCNSEQQRGKENLPKRTVSLWSYINSQLEDFTNPLYGSYSNHVLYPVASMRHLELWVGYYIRWNPRMKPQEPIHNRYKELLAKRAELQKKVEELQREISNRSTSSSERASSPAQCVTPVQTVV
notes: E. coli BL21-DE3
Km [4]: 62 ± 4 µM
kcat [4]: 348 ± 17 x 10^-3 s^-1

B2: LMW-PTP (LMW-PTPB) (Homo sapiens) (protein)
chain: MAEQATKSVLFVCLGNICRSPIAEAVFRKLVTDQNISENWVIDSGAVSDWNVGRSPDPRAVSCLRNHGIHTAHKARQITKEDFATFDYILCMDESNLRDLNRKSNQVKTCKAKIELLGSYDPQKQLIIEDPYYGNDSDFETVYQQCVRCCRAFLEKAH
notes: N-terminal 6xHis tag (pNIC28a-Bsa4, TEV-cleavable; cleavage described only for crystallisation); E. coli BL21-DE3
Km [5]: 307 ± 29 µM
kcat [5]: 0.000226 ± 1.9e-05 s⁻¹
kcat/Km [5]: 0.735 ± 0.054 M⁻¹ s⁻¹
Km [6]: 476 ± 30.2 µM
kcat [6]: 6.03 ± 0.106 s⁻¹
kcat/Km [6]: 12700 ± 670 M⁻¹ s⁻¹

Results, then the molecule that gave them:

Km (LMW-PTP (LMW-PTPB) [1]): 1390 ± 105 µM
Molecule: O=[N+]([O-])c1ccc(OP(=O)(O)O)cc1 [pNPP]

Km (LMW-PTP (LMW-PTPB) [3]; read-out: RT / Km): 29.2 ± 3.7 µM
Km (LMW-PTP (LMW-PTPB) [3]; read-out: RTK / Km): 26.2 ± 3.9 µM
Km (LMW-PTP (LMW-PTPB) [2]; read-out: RK / Km): 35.9 ± 6.3 µM
Km (LMW-PTP (LMW-PTPB) [2]; read-out: RKK / Km): 27.2 ± 7 µM
Molecule: CCCCCCCC(=O)OC[C@H](COP(=O)(O)O[C@H]1[C@H](O)[C@@H](OP(=O)(O)O)[C@H](O)[C@@H](O)[C@H]1O)OC(=O)CCCCCCC [PI(5)P]

Km (LMW-PTP (LMW-PTPB) [2]; read-out: RK / Km): 30.7 ± 3.5 µM
Molecule: CCCCCCCC(=O)OC[C@H](COP(=O)(O)O[C@H]1[C@H](O)[C@@H](O)[C@H](OP(=O)(O)O)[C@@H](O)[C@H]1O)OC(=O)CCCCCCC [PI(4)P]
